The nanobody polyreactivity screen of Harvey et al. (2022)

Assay: yeast display, Sf9 membrane polyspecificity reagent, FACS + sequencing; frameworks hold sequencing errors
Method in brief: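 Galactose induction of a Saccharomyces cerevisiae BJ5465 synthetic nanobody display library ran 36–48 hours. The cells were then stained for 1 hour at 4 °C with 10% biotinylated, detergent-solubilized Sf9 membrane reagent, pulled down on streptavidin microbeads and FACS-sorted into low and high (top ~1%) gates on expression and reagent-binding fluorescence. Labels for polyreactivity follow the gate of origin.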

| Sequence | polyreactivity (PSR sort gate) |
| --- | --- |
| QVKLVESGGGLVQAGGSLRLSCAASGSTFYQNAMGWYRQAQGKEREFVAAISGSGDRTNYADSVKARFTISRDNAKNTVYLQMNSLKPEDTAVYFCAARGQPGRRTSSGFFSGGYCGQGTQVTVSS | high polyreactivity |
| QVQLVESGGGLVQAGGSLRLSCAASGSIFRVYAMGWYRQAPGKERELVASISRRGGSTYYADSVKGRFTISRDNAKKTVYLQMNSLKPEETAVYYFAAEFVIGGHGYDYWGQGTQVTVSS | high polyreactivity |
| QVQLVESGGGVVQAGGSLRLSCAASGRIFVGYDMGWYRQAPGKEWELVAAINRSGSSTYYADSVKGRFTISRDNAKNTVYLQMNSLKPEDTAVYYCNDRSGNRYGPRYDYWGQGTQVTVSS | high polyreactivity |
| QVQHGESGGGLVQAGGSLRLTCAASGSIFKYNAMGWYRQAPGKERELDAAISLSGASRSYADSVKGRFTISRVNAKNTVYLQMNSLKPEDTAVYYCNAYYWYYSTRKYYYWGQGTQETVSS | high polyreactivity |
| QVQLVESGGGLVQAGGSLRLSCAASGSIFKPYAMGWYRQAPGKERELVAAITRSGGSTYYADSVKGRFTISRDKAKNTVYLQMNSLKPEDTAVYYCAAGNAPYFRYGSKKYGYWGQGTQVTVSS | high polyreactivity |
| QVQLVESGGGLVQAGGSLRLSCAASGSTFGRYGMGWYSQAPGKERELVAAISKNAGSTYYADSVKGRCTISRDNAKNTVYLQMNSLKPEDTAVYYCAADWRTKGYDSLGQGTQVTVSS | high polyreactivity |
| QVQLVESGGGLFQAGGSLRLSCAASGSTFFGYAMGWYRQAPGKERELVAAISSRGGTTNYADSVKGRFTISRDNAKNTVYLQMNSLKPEDNAVYYCNAKDTQEYNRVKYNYWGQGTQVTVSS | high polyreactivity |
| QVQLVESGGGLVQAGGSLRLSCAASGSIFSDYGMGWYRQAPGKERELVAGISWNGTSTYYADSVKGRFTISRDNAKNTVYLQMNSLKPEDTAVYYCAATFEGGISDLLDLDYWGQGTQVTVSS | low polyreactivity |
| QVQLVESGGGLVQAGGSLRLSCAASGRTFGDYAMGWYRQEPGKERELVAGITGRDSTNYADSVKGRFTISRDNAKNTVYLQMNSLIREDTAVYYCNADFWYTDISYGLATYDYWGQGTQVTVSS | high polyreactivity |
| QVQLVESGGGLVQAGGSLRLSCAASGLIFVINAMGWYRQAPGKERELVATISSGVSTNYADSVKGRFTISRDNAKNTVYLQMNSLKPEDTAVYYCNAPEITYYYAPWETKIYDYWGQGTQVTVSS | low polyreactivity |
| QVQLVESGGGLVQAGGSLRLSCAASGRISFYYAMGWYRQAPGKERELVAAISRGGSTYYADSVKGRFTISRDNAKNTVYLQMNSLKPEDTAVYYCAATYSGVDTPSGYDYWGQGTQVTVSS | low polyreactivity |
| QVQLVESGGGLVQAGGSLRLSCAASGSTFLSYAMGWYRQAPGKERELVAAISWSGGRTYYADSVKGRFTISRDNAKNTVYLQMNSLKPEDTAVYYCAARHVPFTKHEYEYWGQGTQVTVSS | low polyreactivity |
| QVQLVESGGGLVQAGGSLRLSCAASGIIFPYYAMGWYRPAPGKERELVAASTGRGTSTYADSVKGRFTISRDNAKNTVYLQMNSRKPEDTAVYYCAAVGWFADFLFSDINGYYWGQGTQVTVSS | low polyreactivity |
| QVQLVESGGGLVQAGGSLRLSCAASGRTFKYYAMGWYRQAPGKERELVAAISRSGGSTYYADSVKGRFTISRDNAKNTVYLQMNSLKPEDTAVYYCNAEYLWIRHIAEDYWGQGTQVTVSS | low polyreactivity |
| QVQLVESGGGIVQAGGSLRLSCAASGIISRVYAMGWYRQAPGKERELVAAISGSGGTTYYADSVKGRFTISRDNAKNTVYLQMNRLKPEDTAVDYCAARYKALYDYWGQGTQVTVSS | high polyreactivity |
| QVQLVESGGGLVQAGGSLRLSCAASGPTFGVYAKGWDRQAPGKEREFVAAISSTGGSTYYADSVKGRFTISRDNAKNTVYLQMNSLKPEDTAVYYCAARLHTYGYSYGYWGQGTQVTVSS | high polyreactivity |
| QVQLVESGGGLVQAGGSLRLSCAASGRILPLYAMGWYRQAPGKERELVARIDSGGSTNYADSVKGRFTISRDNAKNTVYLQMNSLKPEDTAVYYCAAVVTAQAFAYFTYGYDYWGQGTQVTVSS | low polyreactivity |
| QLQLVESGGGLVQAGGSLRLSCAGSGSIFVGYAMGWYRQAPGKARELVAAISTRGGSTYYADSVKGRFTISRDNAKNTVYLQMNSLKPEDTAVYYCAADYLDSTYGYVYGWDDYWGQGTQVTVSS | low polyreactivity |
| QVQIVESGGGLVQAGGSLRLSSAAYGSTFAIYTMGWSRQAPGKERELVATISYSGGGTYYADSVKGRFTISRDNAKNTVYLQMNSLKPEDTAVYYCAAGRRTYYGTYYYWGQGTQVNVSS | high polyreactivity |
| QVQRVESGGGLVQAGGTLRLSCAASGNTFDYYAMGWYRQAPGKERELVAAIRYRGGTTYYADSVKGRFTISRDNAKNTVYLQMNSLKPEDTAVYYCAARYVPYSRRYNYWGQGTQVTVSS | high polyreactivity |
| QEQLQESGGGLVQAGGSLRLSCAASGSISPYIYMGWYRQAPGKERAFVAGIGYGGTTNYADSEKGRYTISRDNAKNTEYLQMNSLKPDDTALYYCNAAYFAGPADDKFDYWGQGTQVTVSS | low polyreactivity |
| QVQLVESGGGLVQAGGSLRLSCAASGFTFIRYAMGWYRQAPGKERELVATITRSGGSTYYADSVKGRFTISRDNAKNTVYLQMNSLKPEDTAVYYCAKRGTLGSYYYWGQGTQVTVSS | high polyreactivity |

| Sequence | polyreactivity (PSR sort gate) |
| --- | --- |
| QVQLVESGGGLVQAGGSLRLSCAASGFIFWYYAMGWYRQAPGKERELVAAITSGGSTNYADSVKGRFTISRDNAKNTVYLQMNSLKPEDTAVYYCARPYVTYEYDYWGQGTQVTVSS | low polyreactivity |
| QDQLVESGGGLVQAGGSLRLICAASGSTFDSYAMGWYRQAPGKERELVAAITRSVGSTYYADSVKGRFTISRDNAKYTVYLLMKSLKPEDTAVYYCAARGEWAIYVEFDYWGQGTQVTVSS | low polyreactivity |
| QVQLVESGGGLVQAGGSLRLSCAASGSTFGQYGMGWYRQAPGKERELVAAIRIGGSTNYADSVKGRFTISRDNAKNTVYLQMNSLKPEDTAVYYCNAGGTPTWTHGGYIELDYWGQGTQVTVSS | low polyreactivity |
| QVQLVESGGGLVQAGGSLRLSCAASGSTFQWNAMGWYRQAPGKERELVAAISKSGGRTYYADSVKGRFTISRDFAKNTVYLQRNSLKPDDTAVYYCNALGSLDGRYGYWGQGTQVTVSS | high polyreactivity |
| QVQLVESGGGLVQAGVSLRLSCAAAGITFGDYSMGWYRQEPGKEMELVAGIYWSGDGTSYADSVKGRFTISRDNAKNTVYLQMYRLKPEDTAVYYFAAYWYYYLMDYWGQGTQVSVSS | low polyreactivity |
| QVQLVESGGGLVPAGGSLRLSCAASGRTVRRNAMGWYRHAPGKERELVADISNGDSTKYADSVKGRFTISRDNAKNTVYLQMNSVNPEDTAVYYCATEVSWHWYQQSVTRMDYWGQGTQVTVSS | low polyreactivity |
| QVQLVESGGGLVQAGGSLRISCAASGITFYGYAMGRYRQAPGKERELVATISKSGGITSYADSVKGRFTISRDNAKNTVYLQMNSLKPEDTAVYYCNRGKSYGGYDYWGQGTQVTVSS | low polyreactivity |
| QVQLVESGGGLVQAGGSLRLICAASGGIFGINAMGWYRPSPVKERELVAAINLSGGRTYYADSVKGRFTISRDNAKKTVYLLMNSLKPEDSAVYYCAAYYGYSLYGHYEYWGQGTQVTVSS | high polyreactivity |
| QVQLVESGGGLVQAGGSLRLSCAASGRTFRYYAMGWYRQAPGKERELVAAITSGGSTYYADSVKGRFTISRDNAKNTVYLQMNSLKPEDTAVYYDYWGQGTQVTVSS | low polyreactivity |
| QVHLVESGGGLVQAGGSLRLSCAASGSTFPANAMGRYRQAPGKERELVAAITSGGSTNYADSVKGRFTISRDNAKNTVYLQMNSLKPEDTAVYYCADESYQAHSFYVYYGYDYWGQGTQVTVSS | low polyreactivity |
| QVQLVESGGGLVQAGGSLRLSCAASGIIFYPYAMGWYRQEPGKERYLVASISSGGDTNYADSVKGRFTISRDNAKNTVYLQMNSLKPEDTAVYYCAARVRVQYWWEYYYWGQGTQVTVSS | high polyreactivity |
| QVQLVESGGGLVQAGGSLRLSCAASGRTVWSNAMGWYRQAPGKEREFVASISRTGVNTYYADSVKGRFTISRDYAKNSVYLQMNSLKPEDTAVYYCNVYSARRGVGTLARYSEYDYWGQGTQVTVSS | high polyreactivity |
| QVQLVESGGCLVQAGGSLPLSCAASGIIFAQYVMGWYIQATGKESELVAAIRTSGGRTYYADSVKGRFTISRDNSKNTVYLQMNSLKPEDTAVYYCAAYGKPTFRSVDYWGQGTQVTVSS | high polyreactivity |
| QVQLVESGGGLVQAGGSLRLSCAASGITFYTYAMGWYRQAPRKERELVAAISGSGGSTYYADSVKGRFTISRDNAKNTVYLQMNSLKPEDTAVYYCAARWPRGPFGNRHDYWGQGTQVTVSS | high polyreactivity |
| QVQLVESGGGLVQAGGSLRLSCAASGSIFVSYAMGWYRQAPGKERELVAAITGSGASTYYADSVKGRFTISRDNAKNTVYLQMNSLKPEDTAVYFCAAAPGKGPGYDYWGQGTQVTVSS | low polyreactivity |
| QVQLVESGGGLVQAGGSLRLSCAASGSTFRYYAMGWYRQAPGKVRELVAAITSSGGSTYYADSVKGRFTISRDNEKNTVYLQMNSLKPEDTAVYYCNAVSSYREDDYWGQGTQVTVSS | high polyreactivity |
| QVQLVESGGGLVQAGGSLRLSCAASGFIFRYNAMGWYRQAPGKEREFVAAISWGGGRTYYADSVKGRFTISRDNAKNTVYLQMNSLKPEDTAVYYCAAVSPHNRYGYKYDYWGQGTQVTVSS | high polyreactivity |
| QVQLVESGGGLVQAGGSLRLTCAASGSTFPRYAMGWYRQAPGKEREFVAVIWSGGSTYYADSVKGRFTISRDNAKNTVYLQMNSLKPEDSAVYYCAAEYHTLSKYSGYATHDYWGQGTQVTVSS | low polyreactivity |
| QVQLVESGGGLVQAGGSLRLSCAASGRTFRGYAMGWYRQAPGKETELVAAISSGGSTYYADSVKGRFTSSRDNAKYTVYLQMNSLKPEDTAVYYCARAVGNYRTLEFDYWGQGTQVTVSS | low polyreactivity |
| QVQLVESGGGLVQAGGSLRLSCAASGLTFEVYAMGWYRQAPGKERELVAAISSGGGSTYYADSVKGRFTISRDNGKNTVYLQMNSLKPEDTAVYYCNADALIAAYKYFPYTYRFNYWGQGTQVTVSS | low polyreactivity |
| QVQLVESGGGLVQAGGSLRLSCAASGFTFRWYAMGWYRQAPGKERELVAAITSSGGSTYYADSVKGRFTISRDNAKNTVYLQMNSLKPEDTAVYYCNKRFLDLSYHDYDYWGQGTQVTVSS | high polyreactivity |
